From the nanobody polyreactivity screen of Harvey et al. (2022)

Assay: yeast display, Sf9 membrane polyspecificity reagent, FACS + sequencing; frameworks hold sequencing errors
Method in brief: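 A synthetic nanobody library was expressed on Saccharomyces cerevisiae BJ5465 by galactose induction for 36–48 hours. The library was stained for 1 hour at 4 °C with 10% biotinylated, detergent-solubilized Sf9 membrane reagent and enriched with streptavidin microbeads before FACS. Low and high (top ~1%) gates were set on anti-HA fluorescence for expression and streptavidin fluorescence for reagent binding, and each polyreactivity label reflects the gate of origin.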

Sequence | polyreactivity (PSR sort gate)
QVQLVESGGLLVQAGGSLRLSCAASGFNFYNYAMGWYRQAPGKERELVAAISKRGGRTYYADSVKGRFTISRDNAKITVYLQMNRLKPVDTAVYYCNTDAVRPYHVAWYDYWGQGTQVTVSS | high polyreactivity
QVQLVESGGLLVQAGGSLRLSCAASGRIFNYNAMGWYRQAPGKERELVAAIDSGGRTNYADSVKARFTISRDNAKNTGYLQMNSLKPEDTAVYYCNREAAHGSLRWTEMEYWGQGTQVTVSS | low polyreactivity
QVQLVESGGLLVQAGGSLRLSCAASGRISPKNAMGWYRQAPGKERELVATIRKIGGRTYYADSVKGRFTISRDNAKNTVYLQMNSLKTEDTAVYYCATDFAPSYYPDRFDYWGQGTQVTVSS | low polyreactivity
QVQLVESGGLLVQAGGSLSLSCAASGRTFTPNAMGWYRQAPGKEREFVAAITYYGGSTRYADSVKGRFTISRDNAKNTVYLQMNSLIPEDTAVYYCAADVHYRYFYSWSSYSGYGYWGQGTQVTVSS | low polyreactivity
QVQLVESGGRIVQAGGSLRLSCAASGSTFYPYAMGWSRPAPGKEGQFVAAITWSGGSTYADSVKGRFTISRDNAKNTVYLQMNSLKPEDTAVYYCAAQPFVIEGGYRGDYWGQGTQETVSS | low polyreactivity
QVQLVESGGRLFQAGGSLRLICAASGSIFVYNTKGWYRQSPGKERELVASISYSGGPTYYADSVKGRFTISRDNAKNTVYLQMKSLNPEDTAVYYCAADVRQRGIYGPGPHYYWGQGTQVTVSS | high polyreactivity
QVQLVESGGRLVKAGGSLRLSCAASGRNFFYYTMAWYRQAPGKERELVATISWRGGSTYYADSVKGRFTFSRDNAKNTDYLLMNSLKPEETAVYYCAARYRCRYDSWGQGTQVTVSS | high polyreactivity
QVQLVESGGRLVQAGGRLRLSCAASGNIFYGYAMGWYRQAPGKERELVARINWSGSRTYYADTVKGRFTISRDNAKNTVYLQMNSLNPEDTAVYYCNTSTSRVPGNGDYWGQGTQVTVSS | high polyreactivity
QVQLVESGGRLVQAGGSHRLSCAASGFIFYDYAMGWYIQAPGKERELVAVITRGGSTYYADSVKGRFTISRDNAKNTVYLLMNSLKPEDTAVYYCAAYWFTPGFTFDYWGQGTQVTVSS | low polyreactivity
QVQLVESGGRLVQAGGSHRLSCAASGRTFNVYAMGWYRQAPGKERELVASISSSDTTNYADSVKGRFTISRDNAKNTVYLQMNSLKPEDTAVYYCAADYTPDLLSKVDYCGQGTQVTVSS | low polyreactivity
QVQLVESGGRLVQAGGSHRLSCAASGRTFVENAMGWYRQAPGQEREFVAAISSSGDSTYYADSVKGRFTISRDNEKYTVYLKMNSLNPEDTAVYYCAARVYSRGLFYWGEGTQVTVSS | low polyreactivity
QVQLVESGGRLVQAGGSIRLSCAASGRIFTDNAMGWYRQAPGKERELVAAISWDGSSTSYADSVKGRFTISRDNAKNTVYLQMNSLQPEDTAVYYCAASGVGTNHYGYWNESDYWGQGTQVTVSS | low polyreactivity
QVQLVESGGRLVQAGGSIRLSCAASGRTFYNNAMGWYRQAPGKERELVAAISSGGSTYYADSVKGRFTISRDNAKNTVYLQMNSLKPEDTAVYYCNVRRGGWGYRYYYWGQGNQVTVSS | high polyreactivity
QVQLVESGGRLVQAGGSLLLSCAASGRIFRLYAMGWNTQAPGKERQLVASISSTGRTNYADSVKGRFTISRDNAKNTVYLQMNCLKPEDTAVYYCNAAVIYRYSQWDYGYWGLGTQVTVSS | high polyreactivity
QVQLVESGGRLVQAGGSLLLSCAASGSTIGYYDMGWYRQAPGKERELVASITKSGGTTRYADSVKGRFTISRDNAKNTVYLQMNSLKPEDTAVYYCNADRSLLYSRKIEYDYWGQGTQVTVRS | low polyreactivity
QVQLVESGGRLVQAGGSLRISCAASGRTFRYYAKGWYRQAPGKERELVAAISSRGTRTYYADSVKGRFTISRDNAKNTGYLQMNSLKPEDTAVYYCATRYYQELAYDFWGQGTQVIVSS | high polyreactivity

Sequence | polyreactivity (PSR sort gate)
QVQLVESGGRLVQAGGSLRLICAASGLIFYHNAMGWYRQAPGKERELVAAITASGGSTYYADSVKGRFTISRDNAKNTVYLQMNSLKPEDTAVYSCSADGPLDSDLDYWGQGTQVTVSS | low polyreactivity
QVQLVESGGRLVQAGGSLRLRCAASGFTFGYNDMGWYRPAPGKERELLAGIRSGDDTNYADSVKGRFTISRDNAKNTDYLQMNSLKPEDTAVYYCAADVVNIATAEYDYCGQGTQVTVSS | low polyreactivity
QVQLVESGGRLVQAGGSLRLSCAASGFIFAVYAMGSYRQAPGKECELVAAISRSSGSTYYADSVKGRFTISRHNAKNTVYLQMNSLKPEDTAVYYCAAVFLYRGYAQYDYWGQGTQVTVSS | high polyreactivity
QVQLVESGGRLVQAGGSLRLSCAASGFIFQYYTMGWYRQAPGKERELVAGISRSGGSTYYADSVKGRFTISRDNAKNTVYLQMNSLKPEDTAVYYCAAKIRTSDMGYWGQGTQVTVSS | high polyreactivity
QVQLVESGGRLVQAGGSLRLSCAASGFTFKYYAMGWYTQAPGKERELVAAIRRSAGSTNYADSVKGRFTISRDNAKNTVYLQMNSLKPEDTAVYYCNTVGTRQPMDYWGQGTQVTVSS | high polyreactivity
QVQLVESGGRLVQAGGSLRLSCAASGGIFPPNAKGWYRQAPGKERELVASISSDGSTNYADSVKGRFTISRDNAKNTVYLQMNSLKPEDTAVYYCAADSTTSWARLHVRRFYYWGQGTQVTVSS | low polyreactivity
QVQLVESGGRLVQAGGSLRLSCAASGISFNYYAMGWYRQAPGKEREMVAGITSGGSTYYADSVKGRFTISRDNAKNTVYLQMNSLKTEDTAVYYCATRVRDGSQTPYRRGHSYDYWGQGTQVTVSS | high polyreactivity
QVQLVESGGRLVQAGGSLRLSCAASGITFGNAMGWYRQAPGKERELVAGITFSSGSTYYADSVKGRFTISRDNAKNTVYLLMNSLKPEDTAVYYCATDSSKHPYSPTLLKFDYWGQGTQVTVSS | low polyreactivity
QVQLVESGGRLVQAGGSLRLSCAASGLTFPVYAMGWYRQAPGKEREFVASISGRGASTYYADSVKGRFTISRDNAKNTVYLQMNSLKPEDTAVYYCNADVWLLSYFPEYDYWGQGTQVTVSS | low polyreactivity
QVQLVESGGRLVQAGGSLRLSCAASGRIFAQYAMGWYRQAPGKERELVAAISGRGRTTYYADSVKGRFTISRDNEKNNVYLQMNSVKPEDTAAYYCAAKSTYVAGDYSGQGTQVTVSS | high polyreactivity
QVQLVESGGRLVQAGGSLRLSCAASGRIFIYNAMGWYRQAPGKERELVAAISVSGGRTYYADSVKGRFTISRDNAKNTVYLQMNSLKPEDTAVYYCNKVRVGSLRGYWGQGTQVTVSS | high polyreactivity
QVQLVESGGRLVQAGGSLRLSCAASGRIFRRNAMGWYRQAPGKERELVAAISSSGGRTYYADSVKGRFTISRDNAKNTVYLQMNSLKPEDTAVYYCATRESLEPGYYWGQGTQVTVSS | high polyreactivity
QVQLVESGGRLVQAGGSLRLSCAASGRIFVRNAKGWYRQAPGKERELVADITNGGSTNYADSVKGRFTISRDNAKNTVYLQMNSLKPEDTAVVYWAADTLGVYDGDYWGQGTQVTVSS | low polyreactivity
QVQLVESGGRLVQAGGSLRLSCAASGRIIYGYAMGWYRQAPGKERELVATITWSGGSTYYADSVKGRFTISRDNAKNTVYLQMNSLKPEDTAVYYCAAYSPFIYQAYRYDYWGQGTLVTVSS | low polyreactivity
QVQLVESGGRLVQAGGSLRLSCAASGRTFPVYAMGWYRQAPGKERELVAAISWSGGSTYYADSVKGRFTISRDNAKNTVYLQMNSLKPEDTAVYYCAKAYHLGLGYRFDYWGQGTQVTVSS | high polyreactivity
QVQLVESGGRLVQAGGSLRLSCAASGSIFGGNDMGWYRQAPGKERELVAAITSSGGSTYYADSVKGRFTISRDNAKNTVYLQMNSLKPEDTAVYYCNADYYGPYRDYGYWGQGTQVTVSS | low polyreactivity
